The DeepSol protein solubility set

Assay: soluble on expression in E. coli; label from the status in PepcDB or PDB records

Soluble on expression in E. coli, not soluble:
MGSDKIHHHHHHMMKLSTMKKVVATVDKKWRSPLAEFILERWGFDRHSVFYWRASANFIFMFQHHGKKYYLRFNDSCERNLTLIKEELKLVQYLGSQALAIAQPVLSKNNNLVEVVITPIGTFYAVVFEALDGEHLSFEEMNEEQLFLWGEMLGTIHENLKNVPNDLAIKRPSWKDDLEKVKEWIPSNEIAAMKELEMISEWADQLPITKENFGIIHYDFELDNVRFNEITIGALDFDDCAYYWYVADIVYALRDAGKFRVTTPAIKTFIKGYKSSTFLEEELLEEANGFERLHHLVSFARLLRSVDKDYSKEEPGYLMDLRKNLVSLINNYRLSFEQNHK
MGSDKIHHHHHHMMLSVSLAALRTFVEVARLRSFKDAAQSLGVTSGAVSQQVKLVENRLDVTLFERSGRNVKLTEQGLRLLGAIHVPFEQIREAVEDFDRRRSARNVVRIVTPIALASHWLVPRMDRFSRRHPDIELHIDTAHAEGVRRQLFDIAIQYGNETAPGVEAKRLPSSKLVVVGSPQLLEGASPIRDPSDCLKFPLLHDHDRLNWPAWFRANGSTHLPAASRKGLSFADESLLVAAAAAAQGLALVRDIHAENLLLHGRLKIAIETSMEPFQSYYLLTPSLVSQRPVVDACKNWILSEMARPVFLDLLSRP
MGSDKIHHHHHHMMPAKWDEVRPLLDRFSRDLPTNATVWFMMPDGSYYATAKGGFTDQNLKDCTCFPKLIGGKEVLGELVISRSTGQRSIVVAAPVVADGKVVAAVGVSVDAVKLIEVVESRMTLPENAYIYALDAKTKVTLHRYQARTFKTVFEIGNESLGDTFKKVMHREQGVFNYSLEGKKMNSIFRKSPVHGWYFFIAQQCK
MGSDKIHHHHHHMMSLSNERLIHDPLEWDALVARYGLDCYYEYAYFKLAQEPEAVPEMYVHPSEFGILIYPYLKRRISGTPLQDLTTPYGYGGPVFVGLWSSDQIKDIRRHFLEYCQAERIVSETIRFHPLLENDELGRSWCETTTVLQQTVTVALSEPFEAIESQFSSMTRRNIRKAVREDVTVRVAGQEEYAKFIRLYRLTMDKHQADARYYFTDHYFRQFHDGRLPAELLVAEREGKIIAGCIVLYGQQFAHYHLGASDPAELSARPNHLLFAEMIRRAKALGKTALHLGGGTTRNEDDSLLAYKRSFSNRQTSFTLGTSVLHPLLYRQLSEQHFAHNVLSSQDWFPAYRTPVRQLSPRGEQSS
MGSDKIHHHHHHMMVLTLKDFEQTYFYKTELIQLCKVYGLPTYGTKAELNKYLTLYLSGTPACDIKVNRKHTTSRNKTKITLETKILGEGFSFNQEARKLFAEYFGKEKFSFKKEMAVIKRQAEHNGETKMTVRDLLERYQEMVGQGNVLRETAEEATYQWNNFVRDFCKSSESQNYHQKLKVAAILWEKVKNSKNDKKFEASLVQKYEKNISNYMNK
MGSDKIHHHHHHMNAAQAGLYVDQLTVTWRNGHTALRDASFSVPRGSIAALVGVNGSGKSTLFKALMGFVRVGHGEIAILGQPVNRALRQNLVAYVPQSEEMDWSFPVLVEDVVMMGRYGHMGWLRRAKPRDREIVDAALARVGMSEFRHRQIGELSGGQKKRVFLARAIAQQGQVILLDEPFTGVDVQTEARIISLLRELRDEGCTMLVSTHNLGSVSEFCDYTVMVKGTVLASGPTETTFTAENLERAFSGVLRHVALTGGEAQVITDDERPFISRRAAGGPR
MGSDKIHHHHHHMNADTPLQLLGGLTAAEFLRDYWQRKPLLVRQAIPDFESPLSADELAGLSLEESVESRIVLEHGKTPWEMRRGPFQEEDYQHLPEQDWTLLVQAVDQFVPEVAQLLEQFRFLPSWRIDDVMISYAAPGGGVGPHFDNYDVFLLQGHGRRRWKVGQMCSSDSPLREHADLRILADFEQSDEWVLEPGDMLYLPPRLAHYGIAEDECMTYSIGFRAPSAAEVLTHFTDFLGQFLSDEERYTDAGLQPVGDDPHQIQRDALERLQGLIQEHMSDERLLLTWFGQFMTEPRYPELVAGEEIPEEELFGALEDGALLVRNPSARLAWSEIDIGLVLFASGQSVLLPGQLKELLKLVCSADALHLENLGQWLADDDARKLLAELVKQGSLEFADE
MGSDKIHHHHHHMNAQEERSRDWVSIRRPFAKAGLETMTARYIQQSFKPHAHDEYVIGIIEGGVHSVWCRGIHHNMPSGTVVTMHPGDVHYGNAAIAEGWKQRMIYISENEIGKFISDIAGGDKFLLPDFKQTFHDRPDLAHSFAQFHEVLHSSPLALARDVALDSIMRVTIGALSPDFVKAKDAKQPSGRIADAVEFLHNRIEDDVTLDELCDVAGLRRRQTIEAFKRCTGLPPHAYHVIQKVKAVKTMLRDGFSATEAAARAGFADQSHMTRHFVGVVGMTPGAYALDCQKKY
MGSDKIHHHHHHMNARVNLNGLGTLHPMTSTRIATGTSGLDTILRGGLPSNRLYLLEGQPGSGKTTLALQFLLEGAAKGESCLYITLSETLDELQEVAQSHGWSLDALHIFELASAEAFLGDGRQQSILHPWELELDGTVKLIQAEVDRVKPQRVVFDSLSELRLLAQDSLRYRRQVLALKQFFAPRNITVLLVDDLTGTSEGRDSHLHSLCHGVVSLERLTLDFGAARRRMQVQKLRGVDFIAGYHDLSILRGGLRIYPRLIASDHHVTFIGDAVSSGVQEVDDLLHGGPLRGTSTLLTGPAGSGKTNLALQYVAAACARGEHCCIFEFDERTGTLLARAESLGLDLRRHLESGLLELRQMDPAELSPGEFAWQVRASVEQRNCRLLVIDSLNGYLSSMPQEKQLMLQMHELLSYLNQSGVTTFLINPQHGLVGTMSTGNLNISYMADTVILFRFFEAQGRIRKALSVIKNRSGAHEDAIRELRIGNSGIRLSAPLNDFHGVLTGTPHFIGDEAPLLGNDLARR
MGSDKIHHHHHHMNAVQVLNFQQNSVRTVADNKGELWFLANDVCEILGYTNPRRTVDLHCKSRGVTKRYTPTTSGEQEMTYINEPNLYRLIIKSRKPAAEAFEEWVMETVLPAIRKTGGCQVGPKTTADDRTGLRQAVAALVGRKGIDYSSAYSMIHQRFNVESIEDLPAGKLPEAVAYVHALTLHTGLTGEVLDAPPKAEPKLPIDGNSLADIAAMVYYGTWMIESGKDISAPLKQLGCRQAVTMWTVWHETRPILKRSAAALEVLRGYADKDASDRIAACLEGIYGKATVR
MGSDKIHHHHHHMNDSATQLTSTGSLTLRHLEAVTMDKAPTFTVKRIAFDEHYLPAENTRITTNFANLARGANRQQNLRNTLTMINNRFNALAHWDNPEHDRYRVELDIISVEMNLESAQYGNALPLIEILKTYIVDRKNNTRLEGMVGNNFSSYVRDYDFSVLLLEHNKHRSTFSTPDHFGELHGNLFKCFVNSQTYQEHFSKPPVICLSVSSSRTYLRTENQHPVLGVEYQQDEYSLTDEYFKKMGLTVRYFMPPNSVAPLAFYFAGDLLADYTDLELISTISTMDTFQKIYRPEIYNANSPAGKAYQPSLKNQDYSLTRIVYDREERSRLAIEQGKFAEEQFVKPYQATLAQWSAQYAR
MGSDKIHHHHHHMNELQAILEGFESSQESGEITFLATVVKTQGSTYRRPGAKMFMTNTGRTIGTISAGCLENDVFEYTQQRMSDGKPILVTYDRTASEDILWGFGLGCNGVVQVLIERLERKSIPNAIAFTQECFHKKHLGIIATVFAFEGEVDVELGSRLLLYPNGKIVTDIKDQYLIQSLSADTQAAFVNQKPSVNNYQLPFGSAEVFIEVIQPPTPLVIFGAGYGAVPIAKFAQALGWDVTVVDCRANDTTRARFPLACDVILSNRYIIHKQIFIDVQTIAVVMTHNYLDDLEILKMMLPSPARYIGVLGTKYRTERLLEDLSIKGIVPTSEQLNRLYSPVGIDIGAETPEEIAIAIIAEIQAVLKNRNSNFLKNRNQPIHKSYQDNFNL
MGSDKIHHHHHHMNETNFDWDDLRLFLAVAREGGLAAAAASTGKSAPTLGRRMLNLERRLGSDLFQRMARGYALTEDGQHLLAKAARLESLVLPITAIDPEQAIPVVKVSAGSWVTHLLCANVSEIIGSDRIRLRFIASDDVADIGRREALIGIRNHRPEGSGLAGRRITRVRFAVYARNRKVNTWARVIATTPSAKWVREEARTADAIEVTSPRNALDLALAGTARVVLPTFIGSQFDTLKQVSPLIGDLEHEQWLVTHHEDRFVPQVRKVIDRIYLILKQAKTSS
MGSDKIHHHHHHMNFKDCIDSYPFILMEGALGERLKREFDLDISGTVAMADLVYQQKGRLALETLWNEYIDIAYRYQLPFLATTPTRRANKERIYMAGYNESIIADNVDFLRSIKEAANVDMYIGGLMGCKGDAYTGEEALNLEEAIDFHSWQAGLFKSAKVDFLYAGIMPVLTEAIGMAVAMSDTDIPYIISFTIQRDGKLIDGHTIDDAIHCIDNHVSNKPVCYMTNCVHPDIVYEALSHKFNQTQTVKSRFWGIQANTSQLSYKELDGANHLHTSSAADLSEAILKLKSDCHLKIFGGCCGTDSSHMEKIAKISEVT
MGSDKIHHHHHHMNGQLLRQIANYQILYSACCKDLGLLRGKIGISLFFFHYAHFCGDSLYSDYANELIGDVYDDIRIDTPWGIRNGLLGIGWGLEYFMQKGFVECGSNDILTELDNKIMERDLRRVKDYSFDTGIEGLAWYVLIRLLSSERYLQKPFDKMYLDDLRGVCENVPNKVCHPGISLLLDYLVGKQIDDWYLVVLGKITSQRTGGEKKEALLWVEGLKYLLR
MGSDKIHHHHHHMNIEGNIAIICITENGKKLALKINSLVNNCVIYQVKNKKSNLVVEETCVHTVQKKLSDFVGEIFSKFDYIVFIMATGIVVRSIAPYIISKFSDPAILVMDEKGKNVISLLSGHIGGANSLTQYISSLIDANPVITTATDINQKASLDMIAKKLNAHIDNFRESVKEVNSMLVNNKCVGLYVDEGYQVDTRGFKLIESKDELRDSFSNTYIEKLVVVSNKINCIEDIENLNLDNKFEHCYSTQKIIKVIPRDIVIGIGCRRNTDSELMYNSLEEFLNKQNIDIRAINTVGSIELKKDEKAIIELSKILKVPFKTFSVDEISKVDNLFDKSDFVKKNVGVYSVAEPVAYLLSKGNLLVEKHKYKGITFSVGRIKI
MGSDKIHHHHHHMNIHVKECGDLEAPLLVFLHGGGVSGWMWSNQVDYFHHYHCIVPDLPHHGLSGRETSFTILNSAEALIRLIEKKAQGRDVIVIGFSLGAQILLQMISINPRLITKAIVNSALVRPIPIPEKLLELSVKSTFPLIKSRWFSRLQAKTLYIDDDLFETYYRESCQMTQDSLTQILKENVSFRLPENVHEISTRILTTVGAKEKRIMKTSATMITHAHPNSTGIIIPSVGHGIPLAKPDQFNQLVDQWLKEERLPHDVGLIEK
MGSDKIHHHHHHMNILMLMLSDNPDTGGMEKHARELSSELARLGHTVTLAAASQHLSDLEPAVKTRALDTGGSRNSPFLLLTVLRLIRANGFDVIHAQGTKAAFVLQRLTPFTRSLMRVATIHGFKSRYPKAAAFHQLIAVSQALATDIAQPGVTVIYNGVSVIPQAPALLPKETERPVWLAVGRLVSVKGFDFLIRTFQYCPGTLLIAGDGPERQRLADLISSTHQSETVKLLGFRSDVPALMAAADGVVISSEREGFSYVCAEALLLGKPVISTDVPIANEILPEKHIFRGEDPKRFAAYLSQDTSTLVAEQAEAQAFAADQLSLSSMASQTLNVYQRAIANLVSIH
MGSDKIHHHHHHMNINFENHGGNIEKEARQLGLSTENIIDASASIVPFKLPKKLNNYLINSIKNRSIRSYPDSSYFEVRNAISKWHNIEPSMILPGNGASELFTWAARDASLNGISSLPSPGFGDYQRALKCWNATYVHNPLPLSWTNNNPQSFPIEPKANVLWITNPHNPTGQLWSRSSIENLLANYKLVICDEAFISLVPGGESQSIIDLTNIYKNLIVIRSLTKFLGIAGLRVGYAVTNSDRLLKWKEIRDPWPVNTLAINATKMIMKDSKMHKKRLNKIHRWVEKEGKWLYQSLSSFSTIKPLPSTTNFQLIKSESSILNLLENLKKRGILLRDCRSFINLDEKWFRISLLKREQNIQIINTLKDYIN
